According to patent US20170096479A1 (published 2017):
Blank lines part the entries; values can stand above or below the binder they belong to.

How the values were obtained:
human VEGF (hVEGF) [1] = target: T1, human VEGF (hVEGF) (human, UniProt P15692 181-395); experiment: cell-based or functional assay
T1 sequence: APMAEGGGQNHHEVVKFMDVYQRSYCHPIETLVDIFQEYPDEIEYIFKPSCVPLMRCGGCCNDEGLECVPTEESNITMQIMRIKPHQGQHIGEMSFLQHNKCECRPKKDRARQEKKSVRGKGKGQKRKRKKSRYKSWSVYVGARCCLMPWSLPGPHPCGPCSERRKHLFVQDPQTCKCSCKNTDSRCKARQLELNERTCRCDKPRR

human VEGF (hVEGF) [2] = target: T1, human VEGF (hVEGF); experiment: SPR BIACORE kinetics
human VEGF165 = human VEGF165 (human, UniProt P15692-4 27-191); experiment: cell-based or functional assay
human VEGF (hVEGF) [3] = target: T1, human VEGF (hVEGF); experiment: SPR BIACORE T200, single cycle
Description: To confirm the results obtained from the deep mutagenesis scanning, selected mutations were expressed and purified, and their affinity towards VEGF was measured using BIACORE® surface plasmon resonance (SPR) and their thermostability (as assessed by melting temperature, Tₘ) was measured using differential scanning fluorimetry (DSF).
To determine the binding affinity of selected Fab variants, SPR measurement with a BIACORE® T200 instrument was used. Briefly, series S sensor chip CM5 was activated with 1-ethyl-3-(3-dimethylaminopropyl) carbodiimide (EDC) and N-hydroxysuccinimide (NHS) reagents according to the supplier's instructions, and human VEGF (hVEGF) was coupled to achieve 50-80 response units (RU), then following by blocking un-reacted groups with 1 M ethanolamine.
Three-fold serial dilutions of Fab in HBS-P buffer (0.01 M HEPES pH 7.4, 0.15 M NaCl, 0.005% surfactant P20) from low (0.02 nM) to high (50 nM) were injected (flow rate: 30 μl/min). The binding responses on hVEGF were corrected by subtracting of RU from a blank flow cell. The sensorgram was recorded and subject to reference and buffer subtraction before evaluating by BIACORE® T200 Evaluation Software (version 2.0). Association rates (kₒₙ) and dissociation rates (koff) were calculated using a simple one-to-one Langmuir binding model. The equilibrium dissociation constant (Kd) was calculated as the ratio koff/kₒₙ.

B1: G6.31 AAEE (LC-N94A.LC-F83A.HC-A40E.HC-T57E) (Fab, V domains shown)
VH: EVQLVESGGGLVQPGGSLRLSCAASGFTISDYWIHWVRQEPGKGLEWVAGITPAGGYEYYADSVKGRFTISADTSKNTAYLQMNSLRAEDTAVYYCARFVFFLPYAMDYWGQGTLVTVSS
VL: DIQMTQSPSSLSASVGDRVTITCRASQDVSTAVAWYQQKPGKAPKLLIYSASFLYSGVPSRFSGSGSGTDFTLTISSLQPEDAATYYCQQGYGAPFTFGQGTKVEIK
IC50 relative to G6.31, VEGF-induced HUVEC migration assay (human VEGF (hVEGF) [1]): 0.9 relative to G6.31

B5: G6.31 HC-T57E (Fab, name in Kabat numbering, V domains shown)
VH: EVQLVESGGGLVQPGGSLRLSCAASGFTISDYWIHWVRQAPGKGLEWVAGITPAGGYEYYADSVKGRFTISADTSKNTAYLQMNSLRAEDTAVYYCARFVFFLPYAMDYWGQGTLVTVSS
VL: DIQMTQSPSSLSASVGDRVTITCRASQDVSTAVAWYQQKPGKAPKLLIYSASFLYSGVPSRFSGSGSGTDFTLTISSLQPEDFATYYCQQGYGNPFTFGQGTKVEIK
notes: Fab
kon (human VEGF (hVEGF) [3]): 1.93e+08 M⁻¹ s⁻¹

B7: G6.31 LC-N94A (Fab, V domains shown)
VH: EVQLVESGGGLVQPGGSLRLSCAASGFTISDYWIHWVRQAPGKGLEWVAGITPAGGYTYYADSVKGRFTISADTSKNTAYLQMNSLRAEDTAVYYCARFVFFLPYAMDYWGQGTLVTVSS
VL: DIQMTQSPSSLSASVGDRVTITCRASQDVSTAVAWYQQKPGKAPKLLIYSASFLYSGVPSRFSGSGSGTDFTLTISSLQPEDFATYYCQQGYGAPFTFGQGTKVEIK
IC50 relative to G6.31, VEGF-induced HUVEC migration assay (human VEGF (hVEGF) [1]): 5.2 relative to G6.31

Next, values leading:

Kd (human VEGF (hVEGF) [2]): 0.0949 nM
B2: R19HCLC2 (Fab, V domains shown)
VH: EEQLVEEGGGLVQPGESLRLSCAASGFEISDYWIHWVRQEPGEGLEWVAGITPAGGYEYYADSVEGRFTISADTSENTAYLQMNELRAEDTAVYYCARFVFFLPYAMDYWGQGELVTVSS
VL: DIQMTQSPSSLSASVGDEVTITCRASQDVSTAVAWYQQKPGEAPKLLIYSASFLYSGVPSRFSGSGSGTDFTLTIESLQPEDAATYYCQQGYGAPFTFGQGTKVEIK
notes: Fab

qAC50 (equivalent to IC50), pKDR receptor activation assay on KDR-CHO cells (human VEGF165): 0.135 nM
B3: HA100K-G6.31 AARR (Fab, V domains shown)
VH: EVQLVESGGGLVQPGGSLRLSCAASGFTISDYWIHWVRQAPGKGLEWVAGITPAGGYTRYADSVKGRFTISADTSKNTAYLQMRSLRAEDTAVYYCARFVFFLPYAMDYWGQGTLVTVSS
VL: DIQMTQSPSSLSASVGDRVTITCRASQDVSTAVAWYQQKPGKAPKLLIYSASFLYSGVPSRFSGSGSGTDFTLTISSLQPEDAATYYCQQGYGAPFTFGQGTKVEIK
modifications: free hinge cysteine of the Fab-C heavy chain conjugated to maleimide-functionalized linear hyaluronic acid (Mw 100 kDa)

kon (human VEGF (hVEGF) [3]): 1.17e+08 M⁻¹ s⁻¹
B4: G6.31 LC-Q89T (Fab, V domains shown)
VH: EVQLVESGGGLVQPGGSLRLSCAASGFTISDYWIHWVRQAPGKGLEWVAGITPAGGYTYYADSVKGRFTISADTSKNTAYLQMNSLRAEDTAVYYCARFVFFLPYAMDYWGQGTLVTVSS
VL: DIQMTQSPSSLSASVGDRVTITCRASQDVSTAVAWYQQKPGKAPKLLIYSASFLYSGVPSRFSGSGSGTDFTLTISSLQPEDFATYYCTQGYGNPFTFGQGTKVEIK
notes: Fab

IC50 relative to G6.31, VEGF-induced HUVEC migration assay (human VEGF (hVEGF) [1]): 5.1 relative to G6.31
B6: G6.31 LC-N94A.LC-F83A (Fab, V domains shown)
VH: EVQLVESGGGLVQPGGSLRLSCAASGFTISDYWIHWVRQAPGKGLEWVAGITPAGGYTYYADSVKGRFTISADTSKNTAYLQMNSLRAEDTAVYYCARFVFFLPYAMDYWGQGTLVTVSS
VL: DIQMTQSPSSLSASVGDRVTITCRASQDVSTAVAWYQQKPGKAPKLLIYSASFLYSGVPSRFSGSGSGTDFTLTISSLQPEDAATYYCQQGYGAPFTFGQGTKVEIK
